Data from patent US20240000839A1 (CELLULAR BIOMEDICINE GROUP HK, published 2024).

Biological target: T1, TNFRSF17 (Q02223), i.e., BCMA (UniProt Q02223 1-184)
T1 construct: whole, on cells; also called B cell maturation antigen; CD269
T1 sequence (looked up): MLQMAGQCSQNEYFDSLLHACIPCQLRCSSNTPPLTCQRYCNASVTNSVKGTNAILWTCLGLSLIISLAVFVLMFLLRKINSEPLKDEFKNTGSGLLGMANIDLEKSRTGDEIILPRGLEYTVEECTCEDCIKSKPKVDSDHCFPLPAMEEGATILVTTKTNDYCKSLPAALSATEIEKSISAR
Assay: flow cytometry, HEK293T membrane protein array, 20 ug/mL
Procedure: The light chain variable region of SEQ ID NO: 1 and the heavy chain variable region of SEQ ID NO: 2 were used to prepare a single chain antibody B20-scFv-rabFc, and membrane protein array experiment was performed.
20 ug/mL of B20-scFv-rabFc was added to HEK293T cell array transiently transfected with 5344 membrane proteins, respectively.

B1: B20-scFv-rabFc (Fc fusion)
scFv: DIQMTQSPSSLSASVGDRVTITCRASQGISNYLNWYQQKPGKAPKPLIYYTSNLQSGVPSRFSGSGSGTDYTLTISSLQPEDFATYYCMGQTISSYTFGQGTKLEIKGGGGSGGGGSGGGGSEVQLVESGGGLVQPGGSLRLSCAASGFTFSNFDMAWVRQAPGKGLVWVSSITTGADHAIYADSVKGRFTISRDNAKNTLYLQMNSLRAEDTAVYYCVRHGYYDGYHLFDYWGQGTLVTVSS
notes: not shown: rabbit Fc (rabFc)
Question: Does B1 bind?
Answer: binds
